# Positions count from the first letter of the chain named.
# B1: IL-10 Arg24Cys-R4-20 (ligand, human, UniProt P22301 19-178, looked up)
# chain: SPGQGTQSENSCTHFPGNLPNMLCDLRDAFSRVKTFFQMKDQLDNLLLKESLLEDFKGYLGCQALSEMIQFYLEEVMPQAENQDPDIKAHVNSLGENLKTLRLRLRRCHRFLPCENKSKAVEQVKNAFNKLQEKGIYKAMSEFDIFINYIEAYMTMKIRN
# modifications: R4-20 on Cys 24
# notes: mature
# B2: IL-10 Asn18Cys-S48 (ligand, human, UniProt P22301 19-178, looked up)
# chain: B1 chain with N18C, C24R
# modifications: S48 on Cys 18
# notes: mature
# B3: IL-10 Thr100Cys-S48 (ligand, human, UniProt P22301 19-178, looked up)
# chain: B1 chain with C24R, T100C
# modifications: S48 on Cys 100
# notes: mature
# B4: IL-10 Arg104Cys-S48 (ligand, human, UniProt P22301 19-178, looked up)
# chain: B1 chain with C24R, R104C
# modifications: S48 on Cys 104
# notes: mature
# B5: IL-10 Asn97Cys-R4-18 (ligand, human, UniProt P22301 19-178, looked up)
# chain: B1 chain with C24R, N97C
# modifications: R4-18 on Cys 97
# notes: mature
# B6: IL-10 Asn97Cys-S48 (ligand, human, UniProt P22301 19-178, looked up)
# chain: B1 chain with C24R, N97C
# modifications: S48 on Cys 97
# notes: mature
# B7: IL-10 Arg107Cys-R4-20 (ligand, human, UniProt P22301 19-178, looked up)
# chain: B1 chain with C24R, R107C
# modifications: R4-20 on Cys 107
# notes: mature
# B8: IL-10 Arg32Cys-R4-7 (ligand, human, UniProt P22301 19-178, looked up)
# chain: B1 chain with C24R, R32C
# modifications: R4-7 on Cys 32
# notes: mature
# B9: IL-10 Thr35Cys-S48 (ligand, human, UniProt P22301 19-178, looked up)
# chain: B1 chain with C24R, T35C
# modifications: S48 on Cys 35
# notes: mature
# B10: IL-10 Asn21Cys-S48 (ligand, human, UniProt P22301 19-178, looked up)
# chain: B1 chain with N21C, C24R
# modifications: S48 on Cys 21
# notes: mature
# B11: IL-10 Asn18Cys-R4-18 (ligand, human, UniProt P22301 19-178, looked up)
# chain: B1 chain with N18C, C24R
# modifications: R4-18 on Cys 18
# notes: mature
# B12: IL-10 Arg32Cys-S48 (ligand, human, UniProt P22301 19-178, looked up)
# chain: B1 chain with C24R, R32C
# modifications: S48 on Cys 32
# notes: mature
# B13: IL-10 Arg104Cys-R4-20 (ligand, human, UniProt P22301 19-178, looked up)
# chain: B1 chain with C24R, R104C
# modifications: R4-20 on Cys 104
# notes: mature
# B14: IL-10 Arg24Cys-S48 (ligand, human, UniProt P22301 19-178, looked up)
# chain: B1 chain
# modifications: S48 on Cys 24
# notes: mature
# B15: IL-10 Lys130Cys-S48 (ligand, human, UniProt P22301 19-178, looked up)
# chain: B1 chain with C24R, K130C
# modifications: S48 on Cys 130
# notes: mature
# B16: IL-10 Lys119Cys-S48 (ligand, human, UniProt P22301 19-178, looked up)
# chain: B1 chain with C24R, K119C
# modifications: S48 on Cys 119
# notes: mature
# B17: IL-10 His90Cys-S48 (ligand, human, UniProt P22301 19-178, looked up)
# chain: B1 chain with C24R, H90C
# modifications: S48 on Cys 90
# notes: mature
# B18: IL-10 Asn21Cys-R4-18 (ligand, human, UniProt P22301 19-178, looked up)
# chain: B1 chain with N21C, C24R
# modifications: R4-18 on Cys 21
# notes: mature
# B19: IL-10 Arg107Cys-S48 (ligand, human, UniProt P22301 19-178, looked up)
# chain: B1 chain with C24R, R107C
# modifications: S48 on Cys 107
# notes: mature
# B20: IL-10 Met22Cys-S48 (ligand, human, UniProt P22301 19-178, looked up)
# chain: B1 chain with M22C, C24R
# modifications: S48 on Cys 22
# notes: mature
# B21: IL-10 Phe15Cys-S48 (ligand, human, UniProt P22301 19-178, looked up)
# chain: B1 chain with F15C, C24R
# modifications: S48 on Cys 15
# notes: mature
# B22: IL-10 Ile87Cys-R4-6 (ligand, human, UniProt P22301 19-178, looked up)
# chain: B1 chain with C24R, I87C
# modifications: R4-6 on Cys 87
# notes: mature
# B23: IL-10 Phe36Cys-S48 (ligand, human, UniProt P22301 19-178, looked up)
# chain: B1 chain with C24R, F36C
# modifications: S48 on Cys 36
# notes: mature
# B24: IL-10 Gln123Cys-S48 (ligand, human, UniProt P22301 19-178, looked up)
# chain: B1 chain with C24R, Q123C
# modifications: S48 on Cys 123
# notes: mature
# B25: IL-10 Leu103Cys-R4-6 (ligand, human, UniProt P22301 19-178, looked up)
# chain: B1 chain with C24R, L103C
# modifications: R4-6 on Cys 103
# notes: mature
# B26: IL-10 Leu103Cys-S48 (ligand, human, UniProt P22301 19-178, looked up)
# chain: B1 chain with C24R, L103C
# modifications: S48 on Cys 103
# notes: mature
# B27: IL-10 Glu81Cys-S48 (ligand, human, UniProt P22301 19-178, looked up)
# chain: B1 chain with C24R, E81C
# modifications: S48 on Cys 81
# notes: mature
# B28: IL-10 Glu96Cys-S48 (ligand, human, UniProt P22301 19-178, looked up)
# chain: B1 chain with C24R, E96C
# modifications: S48 on Cys 96
# notes: mature
# B29: IL-10 Phe36Cys-R4-8 (ligand, human, UniProt P22301 19-178, looked up)
# chain: B1 chain with C24R, F36C
# modifications: R4-8 on Cys 36
# notes: mature
# B30: IL-10 Leu101Cys-S48 (ligand, human, UniProt P22301 19-178, looked up)
# chain: B1 chain with C24R, L101C
# modifications: S48 on Cys 101
# notes: mature
# B31: IL-10 Glu122Cys-S48 (ligand, human, UniProt P22301 19-178, looked up)
# chain: B1 chain with C24R, E122C
# modifications: S48 on Cys 122
# notes: mature
# B32: IL-10 Val33Cys-S48 (ligand, human, UniProt P22301 19-178, looked up)
# chain: B1 chain with C24R, V33C
# modifications: S48 on Cys 33
# notes: mature
# B33: IL-10 Ile87Cys-S48 (ligand, human, UniProt P22301 19-178, looked up)
# chain: B1 chain with C24R, I87C
# modifications: S48 on Cys 87
# notes: mature
# B34: IL-10 Lys88Cys-S48 (ligand, human, UniProt P22301 19-178, looked up)
# chain: B1 chain with C24R, K88C
# modifications: S48 on Cys 88
# notes: mature
# B35: IL-10 Glu96Cys-R4-12 (ligand, human, UniProt P22301 19-178, looked up)
# chain: B1 chain with C24R, E96C
# modifications: R4-12 on Cys 96
# notes: mature
# B36: IL-10 Glu122Cys-R4-12 (ligand, human, UniProt P22301 19-178, looked up)
# chain: B1 chain with C24R, E122C
# modifications: R4-12 on Cys 122
# notes: mature
# B37: IL-10 Lys99Cys-S48 (ligand, human, UniProt P22301 19-178, looked up)
# chain: B1 chain with C24R, K99C
# modifications: S48 on Cys 99
# notes: mature
# B38: IL-10 Thr35Cys-R4-5 (ligand, human, UniProt P22301 19-178, looked up)
# chain: B1 chain with C24R, T35C
# modifications: R4-5 on Cys 35
# notes: mature
# B39: IL-10 Lys99Cys-R4-7 (ligand, human, UniProt P22301 19-178, looked up)
# chain: B1 chain with C24R, K99C
# modifications: R4-7 on Cys 99
# notes: mature
# B40: IL-10 Val33Cys-R4-7 (ligand, human, UniProt P22301 19-178, looked up)
# chain: B1 chain with C24R, V33C
# modifications: R4-7 on Cys 33
# notes: mature
# B41: IL-10 Leu101Cys-R4-6 (ligand, human, UniProt P22301 19-178, looked up)
# chain: B1 chain with C24R, L101C
# modifications: R4-6 on Cys 101
# notes: mature
# B42: IL-10 Lys88Cys-R4-7 (ligand, human, UniProt P22301 19-178, looked up)
# chain: B1 chain with C24R, K88C
# modifications: R4-7 on Cys 88
# notes: mature
# B43: IL-10 Glu81Cys-R4-12 (ligand, human, UniProt P22301 19-178, looked up)
# chain: B1 chain with C24R, E81C
# modifications: R4-12 on Cys 81
# notes: mature
# Molecular target: T1, IL-10R1-Fc (UniProt Q13651 22-235, limits assumed)
# T1 sequence (looked up): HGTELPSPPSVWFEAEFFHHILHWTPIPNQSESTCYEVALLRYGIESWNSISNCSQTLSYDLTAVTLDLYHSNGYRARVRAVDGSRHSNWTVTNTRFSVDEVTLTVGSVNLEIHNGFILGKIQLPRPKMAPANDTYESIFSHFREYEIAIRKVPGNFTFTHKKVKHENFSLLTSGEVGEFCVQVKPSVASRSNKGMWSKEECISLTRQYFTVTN
# Experiment: ELISA, IL-10R1-Fc coated
Binder,Binding recovery (>60%),Decreased fold of binding to ligand after Conjugating with S48
B1,90%,–
B2,–,12 fold
B3,–,4 fold
B4,–,3 fold
B5,94.5%,–
B6,–,5 fold
B7,99.5%,–
B8,90.4%,–
B9,–,36 fold
B10,–,7 fold
B11,92.3%,–
B12,–,13 fold
B13,98.5%,–
B14,–,33 fold
B15,–,3 fold
B16,–,3 fold
B17,–,8 fold
B18,99.7%,–
B19,–,3 fold
B20,–,5 fold

# Molecular target: T2, IL-10R2-Fc/His (UniProt Q08334 20-220, limits assumed)
# T2 sequence (looked up): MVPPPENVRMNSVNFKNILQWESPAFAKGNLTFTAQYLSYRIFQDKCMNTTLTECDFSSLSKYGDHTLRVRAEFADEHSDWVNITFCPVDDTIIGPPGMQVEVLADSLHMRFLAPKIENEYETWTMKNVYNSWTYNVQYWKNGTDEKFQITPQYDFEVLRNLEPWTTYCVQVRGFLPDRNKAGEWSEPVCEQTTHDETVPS
# Experiment: ELISA, IL-10R2-Fc/His coated
Binder,Binding recovery (>60%),Decreased fold of binding to ligand after Conjugating with S48
B1,98.1%,–
B21,–,3 fold
B2,–,4 fold
B3,–,8 fold
B4,–,6 fold
B22,95.7%,–
B5,80.7%,–
B6,–,4 fold
B7,84%,–
B23,–,3 fold
B24,–,3 fold
B8,89.6%,–
B25,89.4%,–
B9,–,6 fold
B10,–,6 fold
B11,99.8%,–
B12,–,9 fold
B26,–,3 fold
B13,96.6%,–
B27,–,3 fold
B28,–,3 fold
B29,79.6%,–

Binder,Binding recovery (>60%),Decreased fold of binding to ligand after Conjugating with S48
B30,–,3 fold
B31,–,3 fold
B32,–,3 fold
B33,–,4 fold
B14,–,9 fold
B15,–,3 fold
B34,–,3 fold
B35,98%,–
B36,99.8%,–
B37,–,3 fold
B16,–,4 fold
B17,–,7 fold
B38,123%,–
B39,117%,–
B18,85.3%,–
B40,91.4%,–
B41,91%,–
B42,99%,–
B19,–,5 fold
B20,–,6 fold
B43,93.6%,–
